Reference: the domain aggregation screens of Martell et al. (2025)

Assay: soluble fraction after stress (log2 fold change); higher = more stays soluble; pooled small domains, quantitative proteomics
Conditions: stress: pH 4
In short: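 Custom libraries of small protein domains were pooled and exposed to pH 4. High-throughput quantitative proteomics then measured the log2 fold change in the amount of each domain still soluble, with higher values meaning more stayed soluble. This soluble-fraction fold change stands for aggregation propensity.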
For “HMDLFSAVVHHIVGQQISTKAQATIWKRMRDEFGVVDAAAVLGAGVEKLQSFGMTFRKAEYITDFARKIE”, the “soluble fraction (log2)” value was -0.651.
For “HMDLGLTDDQRLVYGLLSPTVPRSSGELLGMVDFGRSKLSRILKELIELGQVFTVGVGRGLKYKRG”, the “soluble fraction (log2)” value was -0.256.
For “HMDLGTHMRLIVPTGMRVDHIVYESNGKNISVDHDRSISVRWNGEVVSIDVSPLPSRPDFDVLIYMSPK”, the “soluble fraction (log2)” value was -0.162.
With “HMDLLAESLTRREAEVAALAARGLTNRAIAELFGLSVRTAETHLHRAMGKLGANRREDLLLHADRLDPG” the “soluble fraction (log2)” value was -0.618.
With “HMDLLESLSAREREVVHLASRGLVNKLIARELGITERTVKAHLSSAFEKLHIKDRVHLALLVNGI” the “soluble fraction (log2)” value was -0.48.
For “HMDLLKANNLSQINVDKLTDEEILKYSQQLKQSGLTESQAEQIAIARGMPATEIAKLKQRLISLTNMQ”, the “soluble fraction (log2)” value was 0.213.
In the case of “HMDLLVWRVADEDAGERIDKLVVDSLDDVSRTAVQQWIKDGLVTVNGKTVKPNYKAAAGDEVAVSVPEPE”, the “soluble fraction (log2)” value is reported as -0.514.
In the case of “HMDLMKKTLTKEMLLIDFMKQQFPDSSTNKLRKMLSSGRVKINNLITHKAKSQLKLGDIFELANKPHD”, the “soluble fraction (log2)” value is reported as 0.124.
With “HMDLPGIVTETDRQRADLAARIGAAKVEAVLAGGARSVEADEDFDADTRRELHQFLTRMARRAFLEER” the “soluble fraction (log2)” value was -0.722.
In the case of “HMDLPSSETLKVKLNLAKAYVTIEDFGAARRALDEVLSVSSLVDPDLTIQAKSLLAEIDQRS”, the “soluble fraction (log2)” value is reported as -0.0976.
In the case of “HMDLQAAWLQTVRHLLAHTEDVGDRFAEEARRIHYGEEPHRGIRGQATPEERLALREEGIETMSIPV”, the “soluble fraction (log2)” value is reported as -0.204.
For “HMDLQHQLTPRLKRLRLSGILETLEVRNQQAIAEKWSYVEFLTRLAEDEVERRDHKQLTLRLR”, the “soluble fraction (log2)” value was -0.564.
For “HMDLSYPFTTVTTDNVNMRRSASSSSVVLERIDKGDSITVLGTSGNYYKVSYNDRTGYVLKQYVDVSAATT”, the “soluble fraction (log2)” value was -0.0312.
With “HMDLTPEEQMDLYRLLDSLPTEERTYLILHYFEERSFPEMAEILSMPEAKLKSRFYRILHRLRAHL” the “soluble fraction (log2)” value was -1.11.
With “HMDLTSDANLKEAKDQILNLLNDGKRHHVTEINKILLPPVQVQEALRFLIHEETVRVDASFLF” the “soluble fraction (log2)” value was -0.083.
In the case of “HMDLVESYDLKIIYTSELINLLIDSSRLEEALNLFKDLKDEIDDVENLGFSAKNNLDYMESKLLHLG”, the “soluble fraction (log2)” value is reported as -1.6.
For “HMDLYIILGLERSATLSDVRRAYRRLARKYHPGINPGDRNSASVFTRVSEAYQVLSDPEQRRRYDSR”, the “soluble fraction (log2)” value was -0.583.
For “HMDMDRRALLLALINDRYHASVAEFARAINKAPAQVHQWLSGNRALGNAGARDIEIRLNLAQGYFDH”, the “soluble fraction (log2)” value was 0.282.
With “HMDMQMPIMNGLEFLERINLTLDDNFSIIVLTGKIEDKSIEKSFELGINAYLRKPFNIYALLGIVRQN” the “soluble fraction (log2)” value was -0.102.
With “HMDMSDFEVVRDMYLTGKVWNAGDIVEAKGITGEVVRKGTNYLSFVDKNGKVHKAWLHEIEL” the “soluble fraction (log2)” value was -0.968.
In the case of “HMDNAILQELYDYYKEDPSLSQSELIISMLTRIQEAVGYVSKDVQEEVARLAGVNRGYVAAIIKNLPHL”, the “soluble fraction (log2)” value is reported as -0.963.
For “HMDNEYDKVYQAALSKLEGYPRSSITTAVIKDVVAQTIKYFEIKNFGYEDTIINQLQSAFTVKSSS”, the “soluble fraction (log2)” value was 0.0114.
In the case of “HMDNLSESQIKAYSSILSRTHEISDLAENKDYLAFSLWIANILRDPQSVREETAKRVFSALHTNTDFK”, the “soluble fraction (log2)” value is reported as -0.793.
With “HMDNMFMPPVNGWDVRQALQKLQNEMGLQVKMEYSPSETITEGYVISYTPIDGMKVEKGDEVTLVISTGPE” the “soluble fraction (log2)” value was -0.675.
For “HMDNMTEMQKAVTALIEKSGGSIDNLSVIYDHLKKKYPSFDLKDYGYSRFSSFLRSMENIMVRGNAVTLRS”, the “soluble fraction (log2)” value was 0.0508.
For “HMDNPPDRAEIEQMLKDAGLTPEADAMAALSDLARTLDPGDFRQTLEKITLYKLGDSTPIGLDDIAAGAP”, the “soluble fraction (log2)” value was -1.18.
In the case of “HMDNQSIVRINDGDGAWRQRLGEHFGHLPRDRKRGEIVLQVDAADWRWLQTQGYAPRFDAALSAQLQTTL”, the “soluble fraction (log2)” value is reported as -0.147.
In the case of “HMDNVLGKSGKVIFVNEEINSYGRAFIPGHGEWNIRTKSDQNIHINDGIKVIERDGITLVVEL”, the “soluble fraction (log2)” value is reported as -1.3.
For “HMDNVQLRNFAIKATEASIIYLDQEQRNFFWYNNNKKLMTVPFDENPYSAFAAYLKTDEGSEVYKAIEKKF”, the “soluble fraction (log2)” value was -0.504.
In the case of “HMDNWAALLSEREVQVSRLVANGASNKEIADHLAITERTVKAHLTAVFEKLGVRDRLQLSLRVNGL”, the “soluble fraction (log2)” value is reported as -1.64.
With “HMDPALSPAEQKIWDLLAAGETHIDDLVRASGLPVATVNSALVMMEMKEVISQVAAKTYRRNRRN” the “soluble fraction (log2)” value was -0.458.
With “HMDPEARRRAILNAAIDVIVEKGAAALTHRAVAARAGVSLGSTTKYFSSIEDLRENAMDALVREMD” the “soluble fraction (log2)” value was -0.756.
With “HMDPEEQIQSREIWEAVERALDGMQEKGRRVVIALLEGQTQLEVSRAAGISQPLISYYLKSFRTKVRTELG” the “soluble fraction (log2)” value was -0.269.
In the case of “HMDPEIADAVNTIKKYLESHYSEVITRKKIEELVHLNQDHINREFKKQTGYTLMEYVQHYRILMAKKMLRV”, the “soluble fraction (log2)” value is reported as -0.1.
With “HMDPEQLKIAINTKMPFGKYSGRPLLLLPEPYLVWFKQQGFPDSKLGSQLAMMYEVKLNGLEQMLMPLL” the “soluble fraction (log2)” value was -0.506.
In the case of “HMDPERLDQLQNPDPAVRREAIIALGRSKDLAALPELAKVYKNDPVPELRELARQAGRYIQQENRP”, the “soluble fraction (log2)” value is reported as 0.254.
In the case of “HMDPFVILGISKDSSQSEILEAYKTKRAYYQEHVFDEGDQGAQAARMLGQLDDAYQQAMELSHE”, the “soluble fraction (log2)” value is reported as 0.139.
